# Legend:
# Orai1β-eGFP [1] = biological target: Orai1β-eGFP (UniProt Q96D31); test: FRET or BRET; confocal FRET in living WT HEK293 cells co-expressing Orai1 variant-eGFP and STIM-mCherry (CMV promoter); resting (control) cells, medium with 1.8 mM Ca2+; whole cell averages
# Orai1β-eGFP [2] = biological target: Orai1β-eGFP (UniProt Q96D31); test: FRET or BRET; confocal FRET in living WT HEK293 cells co-expressing Orai1 variant-eGFP and STIM-mCherry (CMV promoter); stimulated with 2 µM thapsigargin for 1 min, 1.8 mM extracellular Ca2+; whole cell averages
# UniProt Q96D31, sequence (Q96D31 whole entry): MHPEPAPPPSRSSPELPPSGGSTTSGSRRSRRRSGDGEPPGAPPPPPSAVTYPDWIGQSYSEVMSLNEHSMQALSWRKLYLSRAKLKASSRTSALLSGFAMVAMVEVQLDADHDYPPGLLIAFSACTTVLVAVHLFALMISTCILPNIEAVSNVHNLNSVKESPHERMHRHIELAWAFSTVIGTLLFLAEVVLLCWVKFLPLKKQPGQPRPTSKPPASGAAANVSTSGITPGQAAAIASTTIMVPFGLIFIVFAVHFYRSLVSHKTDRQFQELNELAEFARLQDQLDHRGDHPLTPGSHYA
substance,measurement,setting,value
STIM2-mCherry (from UniProt Q9P246 15-746) (natural protein),mean nFRET (resting cells),Orai1β-eGFP [1],0.074
same,"mean nFRET (2 µM TG, 1 min)",Orai1β-eGFP [2],0.114

# Source: PMC11730744
